Measurements published in patent US12441790B2, “Binding proteins to the human thrombin receptor, PAR4” (MONASH UNIVERSITY, priority 2017, dated 2025).
Entries after “also recorded” stand apart in the source; their conditions may differ.

Assays:
PAR4 = biological target: T1, PAR4 (Homo sapiens, UniProt Q96RI0); assay: Functional bioassays for PAR4 inhibitory function; assay type: cell-based
T1 construct: host or cells: HEK293 cells transfected with FLAG-PAR4 and/or isolated human platelets
T1 sequence (Q96RI0 18-385): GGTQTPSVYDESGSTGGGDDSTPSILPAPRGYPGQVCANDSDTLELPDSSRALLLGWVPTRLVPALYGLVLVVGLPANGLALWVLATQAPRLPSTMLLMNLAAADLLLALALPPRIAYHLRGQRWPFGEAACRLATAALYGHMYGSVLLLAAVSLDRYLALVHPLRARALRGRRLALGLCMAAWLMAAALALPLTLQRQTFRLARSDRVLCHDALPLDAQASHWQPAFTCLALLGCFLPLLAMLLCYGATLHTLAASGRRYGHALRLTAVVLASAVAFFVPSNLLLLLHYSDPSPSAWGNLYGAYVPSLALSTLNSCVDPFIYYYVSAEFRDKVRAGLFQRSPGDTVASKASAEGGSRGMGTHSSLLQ

human platelets = assay: Thrombin-induced platelet aggregation assay; assay type: cell-based
Description: Platelet aggregation was measured by light transmission aggregometry in a 96-well plate format. Human isolated platelets (2×10^8/ml) were pre-treated for 10 mins at 37° C. with dimethylsulfoxide (DMSO) (1% v/v), the PAR1 antagonist vorapaxar (90 nM), the anti-PAR4 antibody 5RC3 (20-100 μg/ml), or a combination of vorapaxar and 5RC3. Platelets were treated with one of thrombin (0.1 U/ml) and aggregation was analysed at 37° C. in a FLUOstar OPTIMA plate reader (BMG Labtech) using a 595 nm excitation filter, for a period of 50 min (10 read cycles with 5 min double orbital shake period between each read). Optical density was normalised against the blank (maximum) and unstimulated platelets (minimum) and expressed as % maximum.
Human isolated platelets of different PAR4 variants were assessed for their responses to PAR4 agonists.
The binding of five anti-PAR4 monoclonal antibodies to human platelets was examined by flow cytometry.

B1: 5A.RC3: anti-PAR4 monoclonal antibody, IgG2a/K, VH SEQ ID NO:11 and VL SEQ ID NO:12 (antibody, V domains shown)
VH: QVQLVESGGGVVQPGRSLRLSCAASGFTLSNYGMHWVRQAPGKGLEWVSVIWYDGSNKHYADSVKGRFTISRDNSKNTLYLQMNSLRAEDTAVYYCARESIVEVLPPFDYWGQGTLVTVSS
VL: KIVLTQSPGTLSLSPGERVTLSCRASQRVRNNYLAWFQQKPGQAPRLFIYGASSRATGIPDRFSGSGSGTDFIFTISRLEPEDFAVYYCQQYGNSYTFGQGTKLEIK
modifications: VH of 5A.RC3; VL of 5A.RC3
PAR4
  PAR4 inhibitory (antagonist) function: demonstrated PAR4 inhibitory function; also recorded: antagonist
Human platelets; 0.1 U/ml thrombin
  inhibition of platelet aggregation at the highest concentration tested: Near maximal inhibition
Human platelets; in the presence of a PAR1 antagonist, genotypes TT, AT, AA
  inhibition of thrombin-induced platelet aggregation: inhibited in a dose dependent manner
